assay: yeast display, Sf9 membrane polyspecificity reagent, FACS + sequencing; frameworks hold sequencing errors
Summary of the method: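 A synthetic nanobody library was expressed on Saccharomyces cerevisiae BJ5465 by galactose induction for 36–48 hours. The library was stained for 1 hour at 4 °C with 10% biotinylated, detergent-solubilized Sf9 membrane reagent and enriched with streptavidin microbeads before FACS. Low and high (top ~1%) gates were set on anti-HA fluorescence for expression and streptavidin fluorescence for reagent binding, and each polyreactivity label reflects the gate of origin.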

| Sequence | polyreactivity (PSR sort gate) |
| --- | --- |
| QVHLVESGGGLVQAGGSLRLSCAASGSIFAYYAMGWYRQAPGKEWEVVAAINWRVGRTYYADSVNGRFTISRDNAKNTVYLQMNSLKPEDTAVYYCAAVYRNQYRGSRFDYWGQGTQVTVSS | high polyreactivity |
| QVHLVESGGGLVQAGGSLRLSCAASGSIFDVNAMGWYRQAPGKERQLVAAISDSGGSTYYADSVKGRFTISRDNAKNTVYLQMNSLKPEDTAVYYCNADWSSYNYYDFDYWGQGTQVTVSS | low polyreactivity |
| QVHLVESGGGLVQAGGSLRLSCAASGSIFGSNAMGWYRQAPGKERELVAAISRRGGNTYYADSVKGRFTISRDNAKNTVYLQLNSLKPEDTAVYYCAAPKDPDRVQYDYWGQGTQVTVSS | low polyreactivity |
| QVHLVESGGGLVQAGGSLRLSCAASGSIFGYYTMGWYRQAPGKERELVAGIDFITTSTYYADSVKGRFTISRDNAKNTVSLQMNSQKPEDTAVYYCAAYGPLTGYDYWGQGTQVTVSS | low polyreactivity |
| QVHLVESGGGLVQAGGSLRLSCAASGSIFHRYAMGWYRQAPGKEREFVAAISRSGGSSNYADSVKGRFTISRDNAKNTVYLQMNSLKPEDTAVYYCAARTVTTGGSRYDYWAQGTQVTVSS | high polyreactivity |
| QVHLVESGGGLVQAGGSLRLSCAASGSIFNLYGMGWYRQAPGKERELVASITSSGTRTYYADSVKGRFTISRDNAKNTVYLQMNSLKPEDTAVYYCAAGSYLRSNRGYWGQGTQVTVSS | high polyreactivity |
| QVHLVESGGGLVQAGGSLRLSCAASGSIFPYAMGWYRHAPAKERELVAVISWSGASTYYADSVKGRFTISRDNAKNTVYLQMNSLKQEDTAVYYCAVYRYYKLVHLYGYDYWGQGTQVTVSS | high polyreactivity |
| QVHLVESGGGLVQAGGSLRLSCAASGSIFVYNAMGWYRQAPGKERELVAAIDTVGSTNYADSVKGRFTISRDNAKNTVYLQMNSLKPEDTAVYYCAVVTTYWSFYEQVIPSNYWGQGTQVTVSS | low polyreactivity |
| QVHLVESGGGLVQAGGSLRLSCAASGSILLWNTMGWYRQAPGKERELVADIRLSASSTYYADSVKGRFTISRDNAKNTVYLQMNSLKPEDTAVYYCAADEYTPEYCQGYDYWGQGTQVTVSS | low polyreactivity |
| QVHLVESGGGLVQAGGSLRLSCAASGSISLNAMGWYTQAPGKERELDAGISNDDGTNYADSVKGRFTISRDNAKNPVYLQMNSLKPEDTAVYYCNAERDFVEDYWTYLRYDYWGQGTQVTVSS | low polyreactivity |
| QVHLVESGGGLVQAGGSLRLSCAASGSTFAKYAMGWYRQAPRKERELDASIRLSGGSTYYADSVKGRFTISRDNAKTTVYLLMNSQKPEDTAVYYCNKQFATFYYGFDYYYWGQGTQVTVSS | low polyreactivity |
| QVHLVESGGGLVQAGGSLRLSCAASGSTFDAYDMGWYRQAPGKERELVAAISSSGGSTYYADSVKGRFTISRDNAKNTVYLQMNSLKPEDTAVYYCAADWSVWDYDYWGQGTQVTVSS | low polyreactivity |
| QVHLVESGGGLVQAGGSLRLSCAASGSTFGGNAMGWYRQPPGKERELVAAISSGDSTTYADSVKGRFTISRDNAKNTVYLQMNSLKPEDTAVYYCNADYTDTLTGYFSDEVYHGMDYWGQGTQVTVSS | low polyreactivity |
| QVHLVESGGGLVQAGGSLRLSCAASGSTFGRNAMGWYRQAPGKERELVAAISRGGGITYYADSVKGRFTISRDNAKNTVYLQMTSLKPEDTAVYYCNAYLSKYFRYDYWGQGTQVTVSS | high polyreactivity |
| QVHLVESGGGLVQAGGSLRLSCAASGSTFGYYDMGWYRQAPGKERELVATISSGGGTNYADSVKGRFTISRDNAKNTVYLQMNSLKPEDTAVYYCAVTYGSKKARYSIYPRYGYWGQGTQVTVSS | low polyreactivity |
| QVHLVESGGGLVQAGGSLRLSCAASGSTFRKYAMGWYRKAPGKERELDAAITSSGGRTYYADSVKGRFTISRDNAKNSVYLPLNSLKPEDTAVYYCAAGGPRFYSWRSEYDYWGQGTQVTVLS | high polyreactivity |
| QVHLVESGGGLVQAGGSLRLSCAASGSTFRYYAMGWYRQAPGKERELVATINRSGGSTYYADSVKGRFTISRDNAKNTVYLQMNSLKPEDTAVYYCAATHYYSHFLWFASNYDYWGQGTQVTVSS | high polyreactivity |
| QVHLVESGGGLVQAGGSLRLSCAASGSTFVRNVMGWYRQAPGKERELVAAITRSGDTTYYADSVKGRFTISRDNAKNTVYLQMNSLKPEDTAVYHCAKRTFVRRGSIYPIDDYWGQGTQVTVSS | low polyreactivity |
| QVHLVESGGGLVQAGGSLRLSCAASGSTFVYNTMGWYRQAHGKERELVASISSDGNTDYADSVKGRFTISRDNAKNTVYVQMNSLKPEDTAVYYCAARYYYDWRFVGYDYWGQGTQVTVSS | low polyreactivity |
| QVHLVESGGGLVQAGGSLRLSCAASGSTFWYNAMRWYRQAPGKERELVASIDDIGGSTYYADSVKGRFTISRDNAKYTVYLQMNSLKPEDTAVYYCAKDYGSSYVTDSDYWGQATQVTVSS | low polyreactivity |
| QVHLVESGGGLVQAGGSLRLSCAASGSTFYANAMGWYRQAPGTERELVAAITSGGSTNYADSVKGRFTISRDNAKNTFYLQMNSLKPEDTAVYYCAADGGDQERGDYWGQGTQVTVSS | low polyreactivity |
| QVHLVESGGGLVQAGGSLRLSCAASGSTFYVYAMGWYRQAPGKERELVAAISTSTGNTYYADSVKGRFTISRDNAKNTVYLQMNSLKPEDSAVYDCANSGSSSHYYSWGQGTQVTVSS | low polyreactivity |

| Sequence | polyreactivity (PSR sort gate) |
| --- | --- |
| QVHLVESGGGLVQAGGSLRLSCAASGSTFYYYVMGWYRQAPGKERELVAAINISGGNTYYADSVKGRFTISRDNAKNTVYLKKNSLIPEDTAVYYCAADYRSSRTTEYYYWGQGTQVTVSS | low polyreactivity |
| QVHLVESGGGLVQAGGSLRLSCAASGSTIDIYDMGWYRQAPGKERELVAAISIGTYADSVKGRFTISRDNAKNTVYLQMNSLKPEDTAVYYCAAQTDTWGYGYDYWGQGTQVTVSS | high polyreactivity |
| QVHLVESGGGLVQAGGSLRLSCAASGSTIRFNAMGWYRQAPGKERELVAAISGSGGSTYYADSVKGRFTISRDNAKKTVYLQMNSLKPEDTAVYYCAASASSRSYFKSYYWGQGTQVTVSS | high polyreactivity |
| QVHLVESGGGLVQAGGSLRLSCAASGSTIYYNAMGRYRQAHGKERELVPRISRSGGSTYADSVKGRFTISRDNANNTVYLQMNSLKPEDTAVYYCNADPWWRFDYWGQGTQVTVSS | low polyreactivity |
| QVHLVESGGGLVQAGGSLRLSCAASGSTKGNNAMGWYRQATGKERELVAAISTRGGSTYYADSVKGRFTISRDNAKNTVYLQMNSLKPEDTAVYYCAADFGQYHGAVRKMDYWGQGTQVTVSS | low polyreactivity |
| QVHLVESGGGLVQAGGSLRLSCAASGVIFFYYAMGWYRQAPGKESELVAVIDRSGGTTYYADSVKGRFTISRDNAKNTVYLQMNSLKPEDTAVYYCNADDFTYPSGWGFIYDYWGQGTQVTVSS | low polyreactivity |
| QVHLVESGGGLVQAGGSLRLSCAASGYIFKVNAMGWYRQATRKERELVAAISSDGGSTYADSVKGRFTISRDNAKNTVYLEFYSLKTEDTAVYYCNVDLESERDPPKYVYWGQGTQVTVSS | low polyreactivity |
| QVHLVESGGGLVQAGGSLRLSCAASGYTFSRNAMGWYRQAPGKERELVASISSRGGSTRYADSVKGRFTISRDNAKNTVYLQMNSLKPEDTAVYYCAVRGLYSPFTYGYWGQGTQVTVSS | high polyreactivity |
| QVHLVESGGGLVQAGGSLRLSCAASGYTFYANAMGWYRQAPGKEREFVASITWSGGSTYYADSVKGRFTISRDNAKNTVYLQKNSLKPEDTAVYYCAAESWFKYDYWGQGTQVTVSS | low polyreactivity |
| QVHLVESGGGLVQAGGSLRLSCAASGYTSKTYAMGWYRQAPGKEMELVAAINWGSGSTYYADSVKGRFTISRDNAKNTVYLQMNSLKPEDTAVYYCAAEGYYNWYVGYGYWGQGTQVTVSS | high polyreactivity |
| QVHLVESGGGLVQAGGSLRLSCAATGSTFPSYTMGWYRQAPGKERELVAVITLRGGSTYYADSVKGRFTISRDNAKNTVYLQMNSLKPEDTAVYYCAANGQLQGWFDMYYWGQGTQVTVSS | low polyreactivity |
| QVHLVESGGGLVQAGGSLRLSCADSGSTFVAYAMGWYRQAPGKERDLVAAISKSGVRTYYADSVKGRFTISRDNAKNTVYLVMISLKPEDNAVYVCAADSGDLWGPFGYWGQGTQVTVSS | low polyreactivity |
| QVHLVESGGGLVQAGGSLRLSCAPSGRIFFPYAMGWYRQAPGKEREFVAAIRRSGGSTYYADSVKGRFTISRDNAKNTVYLQMNSLKPEDTAVYYCNAPLKRYGYYKYGYWGQGTQVTVSS | high polyreactivity |
| QVHLVESGGGLVQAGGSLRLSCASSGRIFEAYAMGWYRQAPGKERELVAAISGSGGSTYYADSVKGRFTISRDNAKNTVYLQMNSLKPEDTAVYYCAARYFVGKGLGYWGQGTQVTVSS | high polyreactivity |
| QVHLVESGGGLVQAGGSLRLSCASYGRTFGIYAMGWYRQAPGKERELVATISWRGGSTYYADSVKGRFTISRDNAKNTVYLQMNSLKPEDTAVYYCAAETWYSGYTYDYWGQGTQVTVSS | low polyreactivity |
| QVHLVESGGGLVQAGGSLRLSCDASGITFRRYGMGWYRQAPGKERELVATITSSVGSRTYYADSVKGRFTISRDNAKNTVYLQMNSLKPEDTAVYYCAADHRVYDYEYWGQVTQVTVSS | low polyreactivity |
| QVHLVESGGGLVQAGGSLRLSCDASGSIFNTYAMGWYRQAPGKESELVATITSGDRTYYADSVNGRFTISRDNAKNSVYLQMNSLNPEDTAVYYCAKRHWFQYRRPDLGRFDYWGQGTQVTVSS | high polyreactivity |
| QVHLVESGGGLVQAGGSLRLSFAASGIILYDYAMGWNRQAPGKEREMVAGINRSGGITYYADSVKGRFTISRDNAKNTVYFQMNSLIPEDTAVYYCNAVFRYGATRSYRYDYWGQGTQVTVSS | high polyreactivity |
| QVHLVESGGGLVQAGGSLRLSFAASGSIFYFNAMGWYRQAPGKERELVAAINYSGGSTYYADSVKGRFTISRDNAKNTVYLQRNSLKPEDTAVYYCAAVTYFGWYPYRMEYWGQGTQVTVSS | high polyreactivity |
| QVHLVESGGGLVQAGGSLRLSFAASGSTFEDNAMGWYRQAPGKERELVAGISTNGGSTSYADSVKGRFTISRDNAKNTVYLQMNSLKPEVTAVYYCAKGLYVQFDYWGQGTQVTVSS | low polyreactivity |
| QVHLVESGGGLVQAGGSLRLSFAASGYTLSDNAMGWYRQAPGKERELVATIDFGGGSTYYADSVKGRFTISRDNAKNTVYLQRNSLKPEDTAVYYCNTEWTSLSTSSLGGRYDHWGQGTQVTVSS | low polyreactivity |
